Source: patent publication US20180037638A1

How the values were obtained:
[1] = target: auto-inducing peptide (AIP) 2 (Staphylococcus aureus); experiment: cell-based or functional assay
[2] = target: auto-inducing peptide (AIP) 2 (Staphylococcus aureus); experiment: SPR, antibody immobilized on CM5 chip, AIP2 as analyte, 1:1 Langmuir fit

| Binder | Inhibition of AIP2 QS (IC50; nM), agr-driven YFP reporter strain USA100-AH2619 [1] [nM] | Inhibition of AIP2 QS (IC50; nM), agr-driven YFP reporter strain USA100-AH2625 [1] [nM] | Kd [2] [nM] |
| --- | --- | --- | --- |
| C7 (antibody, V domains shown) VH: EVQLVQSGAEMKKPGASMKVSCKTSGYTFARKYMHWLRQAPGQGLEWMGIINPTGGTKSYAPKFQGRVTMTSDMSTNTVYMELNSLRSEDTAVYYCVSDDEEPVWGQGTMVTVSS VL: QSALTQPPSVSKGLRQTATLTCTGNSNNVGSQGAAWLQQHQGHPPKVLSYRNNNRPSGISERFSASRSGNTASLTITGLQPEDEGDYYCSAWDSSLSAPVFGGGTKLTVL | 33.7 | 31.2 |  |
| D3 (antibody, V domains shown) VH: EVQLVQSGAEVKKPGSSVKVSCKAYGGTFGSYGVSWVRRAPGQGLEWMGRLIPIFGTRDYAQKFQGRVTLTADESTNTAYMELSSLRSEDTAVYYCARDGDYYGSGSYYGMDVWGQGTLVTVSS VL: SYELTQPPSASGSPGQSVTISCTGTSSDVGGYNYVSWYQQHPGKAPKVMIYEVSKRPSGVSNRFSGSKSGNTASLTISGLQAEDEADYYCSSYTSSSTHVVFGGGTKVTVL |  |  | 49 |
| E7 (antibody, V domains shown) VH: EVQLVQSGAEVKKPGASVRVSCKTSGYSFTSYDINWVRQTTGQGLEWMGWVNPTSGSTGYAQKFQGRVTMTANTAINTAYMELRDLRSEDTAVYFCVRDVPFDPWGQGTLVTVSS VL: LQSVLTQPASVSGSPGQSITISCTGTSSDVGKYTFVSWYQQHPGKAPKVMVYEVNKRPLGVSPRFSGSKSGNTAYLTISGLQAEDEADYYCSSYTSSSTVVFGGGTKLTVL | 34.2 | 31 |  |
